The source of these data is patent US20220259593A1, “CONTROL OF MAMMALIAN GENE DOSAGE USING CRISPR” (The Regents of the University of California, priority 2019, published 2022).

In this data set the test system is K562 CRISPRi cells. The data set is described as follows: Constant region variant library pooled growth screen, K562. Format: cell-based, human. To be noted: sgRNA constant region variants; activity relative to the original, un-modified constant region cr995. An outline of the steps: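 Library of sgRNA constant-region variants, each paired with 36 targeting sequences (essential-gene and non-targeting), transduced in duplicate into K562 CRISPRi cells, puromycin-selected and grown 4–8 days at >2000× coverage. Activity per variant is its growth phenotype normalised to the same targeting sequence with unmodified constant region.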

B1: cr536 (nucleic acid)
guide: GTTTAAGAGCTAAGCTGGAAACAGCATAGCAACTTTAAATAAGGATATTCCGTTATCAACTTGAAAAAGTGGCACCGAGTCGGTGCT
modifications: listed as DNA, chemistry not fully specified
Regarding B1, the Mean relative activity is on record as 0.003951.

B2: cr381 (nucleic acid)
guide: GTTTAAGAGCTAAGCTGGAAACAGCATAGCAAGTTTAAATTAGGCTCGTCCGTTATCAACTTGACAAAGTGGCACCGAGTCGGTGCT
modifications: listed as DNA, chemistry not fully specified
The molecule B2 came in with a Mean relative activity of 0.003196.

B3: cr469 (nucleic acid)
guide: GTTTAAGAGCTAAGCTGGAAACAGCATAGCAAGTTTAAATAAGGCTAGTCCCTTATCAACTTGAAAAAGTGGCACCGAGTCGGTGCT
modifications: listed as DNA, chemistry not fully specified
B3 yielded a Mean relative activity of 0.003211.

B4: cr355 (nucleic acid)
guide: GTTTAAGAGCTAAGCTGGAAACAGCATAGCAAGGTTAAATAAGGCTAGTCCGTTATCAACTAGAAATAGTGGCACCGAGTCGGTGCT
modifications: listed as DNA, chemistry not fully specified
With B4, the Mean relative activity stood at 0.001771.

B5: cr657 (nucleic acid)
guide: GTTTAAGAGCTAAGCTGGAAACAGCATAGCAAGTTTAAATAAGGCTAGTGCGTTATCAACTTGAAAAAGTGGCACCGAGTCGGTGCT
modifications: listed as DNA, chemistry not fully specified
Take B5: the Mean relative activity is on record as 0.002604.

B6: cr303 (nucleic acid)
guide: GTTTAAGAGCTAAGCTGGAAACAGCATAGCAACTTTAAATAAGGCTTGTCCGTTATCAACTTGAAAAAGTTGCACCGAGTCGGTGCT
modifications: listed as DNA, chemistry not fully specified
In the case of B6, the Mean relative activity is 0.003573.

B7: cr975 (nucleic acid)
guide: GTTTAAGAGCTAAGCTGGAAACAGCATAGCAACTTTAAATATGGCTAGTCCGTTATCAACTTGAAAAAGTGGCACCGAGTCGGTGCT
modifications: listed as DNA, chemistry not fully specified
B7 showed a Mean relative activity of 0.002152.

B8: cr070 (nucleic acid)
guide: GTTTAACGGCTAAGCTGGAAACAGCATAGCAAGTTTAAATAAGGCTAGTCCGTTATCAACTTGAAAAAGTGGCACCGAGTCGGTGCT
modifications: listed as DNA, chemistry not fully specified
Molecule B8 yielded a Mean relative activity of 1.03.

B9: cr608 (nucleic acid)
guide: GTTTAAGAGCTAAGCTGGAAACAGCATAGCAACTTTAAATAAGGGTACTCCGTTATCAACTTGAAAAAGTGGCACCGAGTCGGTGCT
modifications: listed as DNA, chemistry not fully specified
In the case of B9, the Mean relative activity is 0.002568.

B10: cr482 (nucleic acid)
guide: GTTTAAGAGCTAAGCTGGAAACAGCATAGCAAGTTTAAATAAGGCTTGTCCCTTATCAACTTGAAAAAGTGGCACCGAGTCGGTGCT
modifications: listed as DNA, chemistry not fully specified
The molecule B10 showed a Mean relative activity of 0.003006.

B11: cr786 (nucleic acid)
guide: GTTTAAGAGCTAAGCTGGAAACAGCATAGCAAGTTTAAATTAGGCTAGTCCGTTGTGAACTTGAAAAAGTGGCACCGAGTCGGTGCT
modifications: listed as DNA, chemistry not fully specified
Molecule B11 had a Mean relative activity of 0.001749.

B12: cr068 (nucleic acid)
guide: GTTAGAGAGCTAAGCTGGAAACAGCATAGCAAGTTTAAATAAGGCTAGTCCGTTATCAACTTGAAAAAGTGGCACCGAGTCGGTGCT
modifications: listed as DNA, chemistry not fully specified
The molecule B12 registered a Mean relative activity of 0.002959.

B13: cr271 (nucleic acid)
guide: GTTTAAGAGCTAAGCTGGAAACAGCATAGCAAGTTTAAATAAGGCTAGTCCGTTATCAACTTGAAAAAGTGGTCCCGAGTCGGGACT
modifications: listed as DNA, chemistry not fully specified
As to B13, the Mean relative activity stood at 1.03.

B14: cr049 (nucleic acid)
guide: GTGTTAGAGCTAAGCTGGAAACAGCATAGCAAGTTTAAATAAGGCTAGTCCGTTATCAACTTGAAAAAGTGGCACCGAGTCGGTGCT
modifications: listed as DNA, chemistry not fully specified
In turn, B14 gave a Mean relative activity of 0.003203.

B15: cr149 (nucleic acid)
guide: GTTTAAGAGCTAAGCTGGAAACAGCATAGCAAGTTTAAATAACGCTAGTCGGTTATCAACTTGAAAAAGTGTCACCGAGTCGGTGAT
modifications: listed as DNA, chemistry not fully specified
B15: the Mean relative activity is listed as 0.00167.

B16: cr129 (nucleic acid)
guide: GTTTAAGAGCTAAGCTGGAAACAGCATAGCAAGTTTAAATAAGGCTAGTCCGTTATCAACGTGAGAACGTGGCACCGAGTCGGTGCT
modifications: listed as DNA, chemistry not fully specified
In turn, B16 had a Mean relative activity of 1.029.

B17: cr572 (nucleic acid)
guide: GTTTAAGAGCTAAGCTGGAAACAGCATAGCAAGTTTAAATAACCGAACTCGGTTATCAACTTGAAAAAGTGGCACCGAGTCGGTGCT
modifications: listed as DNA, chemistry not fully specified
Regarding B17, the Mean relative activity was determined as 0.002782.

B18: cr143 (nucleic acid)
guide: GTTTAAGAGCTAAGCTGGAAACAGCATAGCAACTTTAAATAAGACTAGTTCGTTATCAACTTGAAAAAGTGGCACCGAGTCGGTGCT
modifications: listed as DNA, chemistry not fully specified
In turn, B18 displayed a Mean relative activity of 0.001524.

B19: cr874 (nucleic acid)
guide: GTTTAAGAGCTAAGCTGGAAACAGCATAGCAAGGTTAAATAATGCTAGTCAGTTATCAACTTGAAAAAGTGGCACCGAGTCGGTGCT
modifications: listed as DNA, chemistry not fully specified
As to B19, the Mean relative activity is 0.002144.

B20: cr981 (nucleic acid)
guide: GTTTAAGAGCTAAGCTGGAAACAGCATAGCAAGTTTAAATAACGCTAGTCGGTTATCAACTGGAAACAGTGGCACCGAGTCGGTGCT
modifications: listed as DNA, chemistry not fully specified
As for B20, the Mean relative activity came to 0.003266.

B21: cr093 (nucleic acid)
guide: GTTTCGGAGCTAAGCTGGAAACAGCATAGCAAGTTTAAATAAGGCTAGTCCGTTATCAACTTGAAAAAGTGGCACCGAGTCGGTGCT
modifications: listed as DNA, chemistry not fully specified
Molecule B21 returned a Mean relative activity of 0.001456.

B22: cr735 (nucleic acid)
guide: GTTTAAGAGCTAAGCTGGAAACAGCATAGCAACTTTAAATAAGGCTAGTCCGTTATCAACTTGAAAAAGTCGCACCGAGTCGGTGCT
modifications: listed as DNA, chemistry not fully specified
In turn, B22 came in with a Mean relative activity of 0.002596.

B23: cr245 (nucleic acid)
guide: GTTTAAGAGCTAAGCTGGAAACAGCATAGCAAGGTTAAATAAGACTAGTTCGTTATCAACTTGAAAAAGTGGCACCGAGTCGGTGCT
modifications: listed as DNA, chemistry not fully specified
The molecule B23 showed a Mean relative activity of 0.00372.

B24: cr930 (nucleic acid)
guide: GTTTAAGAGCTAAGCTGGAAACAGCATAGCATGTTTAAATAAGGCTAGGCCGTTATTAACTTGAAAAAGTGGCACCGAGTCGGTGCT
modifications: listed as DNA, chemistry not fully specified
B24 displayed a Mean relative activity of 0.001721.

B25: cr903 (nucleic acid)
guide: GTTTAAGAGCTAAGCTGGAAACAGCATAGCAAGTTTAAATAAGGCTAGTCCCTTATCAACTTGAAAAAGTGGCACCGAATCGGTGCT
modifications: listed as DNA, chemistry not fully specified
For B25, the Mean relative activity is given as 0.00222.

B26: cr674 (nucleic acid)
guide: GTTTAAGAGCTAAGCTGGAAACAGCATAGCAAGTTTAAATAACGCTAGTCGGTTATCATCTTGAAAAAGAGGCACCGAGTCGGTGCT
modifications: listed as DNA, chemistry not fully specified
Take B26: the Mean relative activity is reported as 0.00279.

B27: cr225 (nucleic acid)
guide: GTTTAAGAGCTAAGCTGGAAACAGCATAGCAAGTTTAAATAATGCTATTCCGTTATCAACTTGAAAAAGTGGCACCGAGTCGGTGCT
modifications: listed as DNA, chemistry not fully specified
As to B27, the Mean relative activity is on record as 0.002658.

B28: cr244 (nucleic acid)
guide: GTTTAAGAGCTAAGCTGGAAACAGCATAGCAAGGTTAAATAAGGGTACTCCGTTATCAACTTGAAAAAGTGGCACCGAGTCGGTGCT
modifications: listed as DNA, chemistry not fully specified
For B28, the Mean relative activity is 0.00149.

B29: cr810 (nucleic acid)
guide: GTTTAAGAGCTAAGCTGGAAACAGCATAGCAAGGTTAAATAAGGCTAGTCCGTTATCAACTTGAAAAAGTGGCACCCAGTGGGTGCT
modifications: listed as DNA, chemistry not fully specified
For the molecule B29, the Mean relative activity is reported as 0.002026.
